Measured values: patent US20260125457A1 (Janssen / Centocor, published 2026)
One block for each molecule: values may come before it.

Legend:
[1] = molecular target: HIS-CALRdel52 (produced in E. coli); test: QC monoclonal phage ELISA, helper phage control
[2] = molecular target: T1, CD3 on primary human pan T cells (human, UniProt P07766 23-207); test: flow cytometry on pan CD3 T cells, 1 h at 37 C, AF647 secondary antibody, Geometric Mean
T1 construct: whole, on cells; also called CD3e; CD3ε
Method: FIG. 22 depicts binding of different CALRmutxCD3 bispecific antibodies to pan CD3 T cells. Flow cytometry was used to evaluate CALRmutxCD3 binding to pan CD3 T cells in vitro, by 1 hour 37° C. incubation, with subsequent incubation with secondary AF647-labeled antibody. Geometric mean fluorescence intensity of AF647 was measured to determine antibody binding.
Flow cytometry was used to evaluate the CD3 arm binding of CALRmutxCD3 antibodies listed in Table 21 to CD3+ pan T cells from healthy human donor. CALRmutxCD3 were tested after 1 hour 37° C. incubation with pan T cells.

[3] = molecular target: T2, CALRins5 (mutant calreticulin, 5 base pair insertion, Type 2) expressed with MPL on engineered cancer cells (UniProt P27797 18-417); test: flow cytometry on ELF-153 MPL CALRins5 cells, 1 h at 37 C, AF647 secondary antibody, Geometric Mean
T2 construct: whole, on cells; On the cell surface in complex with MPL; also called OCI-M2 MPL CALRins5
T2 sequence (looked up): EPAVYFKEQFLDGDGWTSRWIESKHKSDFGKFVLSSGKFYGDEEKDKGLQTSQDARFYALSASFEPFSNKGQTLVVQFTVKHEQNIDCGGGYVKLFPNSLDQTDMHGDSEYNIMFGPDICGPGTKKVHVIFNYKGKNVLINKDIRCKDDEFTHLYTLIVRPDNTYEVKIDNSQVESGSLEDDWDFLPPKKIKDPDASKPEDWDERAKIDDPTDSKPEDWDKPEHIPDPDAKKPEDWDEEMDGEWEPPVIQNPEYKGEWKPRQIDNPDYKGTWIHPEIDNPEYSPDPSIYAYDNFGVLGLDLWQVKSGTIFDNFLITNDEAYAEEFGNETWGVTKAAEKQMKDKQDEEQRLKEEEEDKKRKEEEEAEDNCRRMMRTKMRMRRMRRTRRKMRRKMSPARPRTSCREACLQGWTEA
Method: (§1) FIGS. 21A-21F depict binding of different CALRmutxCD3 bispecific antibodies to CALRmut-negative or CALRmut-positive cells. Flow cytometry was used to evaluate CALRmutxCD3 binding to CALRmut-negative and CALRmut-positive cancer cells in vitro. CALRmutxCD3 antibodies were tested on a panel of cell lines, engineered to express MPL and CALRmut, after 1 hour 37° C. incubation, with subsequent incubation with secondary AF647-labeled antibody. Geometric mean fluorescence intensity of AF647 was measured to determine antibody binding.

[4] = molecular target: T3, wild-type calreticulin (CALRwt) expressed with MPL in engineered cancer cells (UniProt P27797 18-417, limits assumed); test: flow cytometry on ELF-153 MPL CALRwt cells, 1 h at 37 C, AF647 secondary antibody, Geometric Mean
T3 construct: whole, on cells; also called OCI-M2 MPL CALRwt
T3 sequence (looked up): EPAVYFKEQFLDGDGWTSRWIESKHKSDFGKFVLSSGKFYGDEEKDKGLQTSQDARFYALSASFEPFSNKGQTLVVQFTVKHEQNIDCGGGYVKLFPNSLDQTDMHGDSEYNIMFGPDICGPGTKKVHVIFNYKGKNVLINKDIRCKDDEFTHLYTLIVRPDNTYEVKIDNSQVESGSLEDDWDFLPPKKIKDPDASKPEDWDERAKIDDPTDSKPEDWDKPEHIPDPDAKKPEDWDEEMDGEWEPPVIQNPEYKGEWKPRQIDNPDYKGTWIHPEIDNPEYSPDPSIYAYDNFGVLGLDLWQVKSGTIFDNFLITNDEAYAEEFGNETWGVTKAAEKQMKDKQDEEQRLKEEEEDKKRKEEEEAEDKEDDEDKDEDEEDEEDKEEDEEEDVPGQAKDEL
Method: as §1

[5] = molecular target: T4, CALRdel52 (mutant calreticulin, 52 base pair deletion, Type 1) expressed with MPL on engineered cancer cells (UniProt P27797 18-417); test: flow cytometry on OCI-M2 MPL CALRdel52 cells, 1 h at 37 C, AF647 secondary antibody, Geometric Mean
T4 construct: whole, on cells; On the cell surface in complex with MPL; also called OCI-M2 MPL CALRdel52
T4 sequence (looked up): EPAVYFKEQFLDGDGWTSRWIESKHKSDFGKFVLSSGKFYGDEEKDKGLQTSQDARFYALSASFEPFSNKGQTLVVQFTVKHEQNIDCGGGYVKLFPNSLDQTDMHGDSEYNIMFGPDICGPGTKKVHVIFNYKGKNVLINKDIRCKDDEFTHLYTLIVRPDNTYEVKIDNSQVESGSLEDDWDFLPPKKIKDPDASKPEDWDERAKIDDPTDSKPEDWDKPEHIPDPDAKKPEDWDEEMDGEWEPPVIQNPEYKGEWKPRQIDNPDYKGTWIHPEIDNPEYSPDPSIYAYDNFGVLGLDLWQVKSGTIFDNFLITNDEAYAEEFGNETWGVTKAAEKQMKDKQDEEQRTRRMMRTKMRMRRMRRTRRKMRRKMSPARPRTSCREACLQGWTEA
Method: as §1

T1 sequence (P07766 23-207): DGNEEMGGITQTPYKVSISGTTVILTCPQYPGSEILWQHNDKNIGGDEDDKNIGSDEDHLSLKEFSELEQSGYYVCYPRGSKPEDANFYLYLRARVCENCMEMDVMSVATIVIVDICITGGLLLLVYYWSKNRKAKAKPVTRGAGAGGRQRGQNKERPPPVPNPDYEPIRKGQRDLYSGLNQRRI

phage ELISA signal (Coating: CALR) [1]: 0.225
Molecule: M13KO7

EC50 (read off the curve) [2]: ~3 nM | EC50 (read off the curve) [3]: ~3 nM | binding result [4]: no binding (tested: 100 nM) | EC50 (read off the curve) [5]: ~4 nM
B1: CALRB1508 CALRmut x CD3 bispecific antibody (bispecific antibody, human IgG1, kappa, L234A L235A)
scFv: DIQMTQSPSSLSASVGDRVTITCRARQSIGTAIHWYQQKPGCAPKLLIKYASESISGVPSRFSGSGSGTDFTLTISSLQPEDFATYYCQQSGSWPYTFGQGTKLEIKGGGSGGSGGCPPCGGSGGEVQLVESGGGLVKPGGSLRLSCAASGFTFSRYNMNWVRQAPGKGLEWVSSISTSSNYIYYADSVKGRFTFSRDNAKNSLDLQMSGLRAEDTAIYYCTRGWGPFDYWGCGTLVTVSSEPKSSDKTHTCPPCPAPEAAGGPSVFLFPPKPKDTLMISRTPEVTCVVVSVSHEDPEVKFNWYVDGVEVHNAKTKPREEQYNSTYRVVSVLTVLHQDWLNGKEYKCKVSNKALPAPIEKTISKAKGQPREPQVYTLPPSREEMTKNQVSLWCLVKGFYPSDIAVEWESNGQPENNYKTTPPVLDSDGSFFLYSKLTVDKSRWQQGNVFSCSVMHEALHNHYTQKSLSLSPGK
heavy: QVQLVQSGAEVKKPGASVKVSCKASGFSLSSYAMSWVRQAPGQGLEWMGVIDSGGTTYYAQKFQGRVTMTRDTSTSTVYMELSSLRSEDTAVYYCARESYAGYDYYGHPIPYGMEPWGQGTLVTVSSASTKGPSVFPLAPSSKSTSGGTAALGCLVKDYFPEPVTVSWNSGALTSGVHTFPAVLQSSGLYSLSSVVTVPSSSLGTQTYICNVNHKPSNTKVDKKVEPKSCDKTHTCPPCPAPEAAGGPSVFLFPPKPKDTLMISRTPEVTCVVVSVSHEDPEVKFNWYVDGVEVHNAKTKPREEQYNSTYRVVSVLTVLHQDWLNGKEYKCKVSNKALPAPIEKTISKAKGQPREPQVYTLPPSREEMTKNQVSLSCAVKGFYPSDIAVEWESNGQPENNYKTTPPVLDSDGSFFLVSKLTVDKSRWQQGNVFSCSVMHEALHNRFTQKSLSLSPGK
light: DIQMTQSPSTLSASVGDRVTITCQASQSLYNNKNLAWYQQKPGKAPKLLIYYASALASGVPSRFSGSGSGTEFTLTISSLQPDDFATYYCQGEFNCNSADCNSFGGGTKVEIKRTVAAPSVFIFPPSDEQLKSGTASVVCLLNNFYPREAKVQWKVDNALQSGNSQESVTEQDSKDSTYSLSSTLTLSKADYEKHKVYACEVTHQGLSSPVTKSFNRGEC
notes: Chain A: CD3 spFv-Fc; Chain B: CALRB1114 Fab arm

binding result [2]: binds | binding result [4]: no binding (tested: 100 nM) | EC50 (read off the curve) [5]: ~1 nM
B2: C3CRB126 CALRmut x CD3 bispecific antibody (bispecific antibody, human IgG1, kappa, L234A L235A)
heavy 1: QVQLVQSGAEVKKPGASVKVSCKASGFSLSSYAMSWVRQAPGQGLEWMGVIDSGGTTYYAQKFQGRVTMTRDTSTSTVYMELSSLRSEDTAVYYCARESYAGYDYYGHPIPYGMEPWGQGTLVTVSSASTKGPSVFPLAPSSKSTSGGTAALGCLVKDYFPEPVTVSWNSGALTSGVHTFPAVLQSSGLYSLSSVVTVPSSSLGTQTYICNVNHKPSNTKVDKKVEPKSCGGGGSGGGGSDIQMTQSPSSLSASVGDRVTITCRARQSIGTAIHWYQQKPGCAPKLLIKYASESISGVPSRFSGSGSGTDFTLTISSLQPEDFATYYCQQSGSWPYTFGQGTKLEIKGGGSGGSGGCPPCGGSGGEVQLVESGGGLVKPGGSLRLSCAASGFTFSRYNMNWVRQAPGKGLEWVSSISTSSNYIYYADSVKGRFTFSRDNAKNSLDLQMSGLRAEDTAIYYCTRGWGPFDYWGCGTLVTVSSEPKSSDKTHTCPPCPAPEAAGGPSVFLFPPKPKDTLMISRTPEVTCVVVSVSHEDPEVKFNWYVDGVEVHNAKTKPREEQYNSTYRVVSVLTVLHQDWLNGKEYKCKVSNKALPAPIEKTISKAKGQPREPQVYTLPPSREEMTKNQVSLWCLVKGFYPSDIAVEWESNGQPENNYKTTPPVLDSDGSFFLYSKLTVDKSRWQQGNVFSCSVMHEALHNHYTQKSLSLSPGK
heavy 2: B1 heavy
light: B1 light
notes: Chain A heavy: CALRB1114 Fab heavy part, CD3 spFv (LH), Fc; Chain B heavy: CALRB1114

binding result [2]: binds | EC50 (read off the curve) [3]: ~0.5 nM | binding result [4]: no binding (tested: 100 nM) | EC50 (read off the curve) [5]: ~2 nM
B3: C3CRB75 CALRmut x CD3 bispecific antibody (bispecific antibody, human IgG1, kappa, L234A L235A)
heavy 1: EVQLLESGGGLVQPGGSLRLSCAVSGIDLSNNAISWVRQAPGKGLEYVGVIGNTGDTYYADSAKGRFTISRDSSKTTLYLQMNSLRAEDTAVYFCVRGPPSYSSSVKNIWGQGTLVTVSSASTKGPSVFPLAPSSKSTSGGTAALGCLVKDYFPEPVTVSWNSGALTSGVHTFPAVLQSSGLYSLSSVVTVPSSSLGTQTYICNVNHKPSNTKVDKKVEPKSCDGGGGSGGGGSDIQMTQSPSSLSASVGDRVTITCRARQSIGTAIHWYQQKPGCAPKLLIKYASESISGVPSRFSGSGSGTDFTLTISSLQPEDFATYYCQQSGSWPYTFGQGTKLEIKGGGSGGSGGCPPCGGSGGEVQLVESGGGLVKPGGSLRLSCAASGFTFSRYNMNWVRQAPGKGLEWVSSISTSSNYIYYADSVKGRFTFSRDNAKNSLDLQMSGLRAEDTAIYYCTRGWGPFDYWGCGTLVTVSSEPKSSDKTHTCPPCPAPEAAGGPSVFLFPPKPKDTLMISRTPEVTCVVVSVSHEDPEVKFNWYVDGVEVHNAKTKPREEQYNSTYRVVSVLTVLHQDWLNGKEYKCKVSNKALPAPIEKTISKAKGQPREPQVYTLPPSREEMTKNQVSLWCLVKGFYPSDIAVEWESNGQPENNYKTTPPVLDSDGSFFLYSKLTVDKSRWQQGNVFSCSVMHEALHNHYTQKSLSLSPGK
heavy 2: EVQLLESGGGLVQPGGSLRLSCAVSGIDLSNNAISWVRQAPGKGLEYVGVIGNTGDTYYADSAKGRFTISRDSSKTTLYLQMNSLRAEDTAVYFCVRGPPSYSSSVKNIWGQGTLVTVSSASTKGPSVFPLAPSSKSTSGGTAALGCLVKDYFPEPVTVSWNSGALTSGVHTFPAVLQSSGLYSLSSVVTVPSSSLGTQTYICNVNHKPSNTKVDKKVEPKSCDKTHTCPPCPAPEAAGGPSVFLFPPKPKDTLMISRTPEVTCVVVSVSHEDPEVKFNWYVDGVEVHNAKTKPREEQYNSTYRVVSVLTVLHQDWLNGKEYKCKVSNKALPAPIEKTISKAKGQPREPQVYTLPPSREEMTKNQVSLSCAVKGFYPSDIAVEWESNGQPENNYKTTPPVLDSDGSFFLVSKLTVDKSRWQQGNVFSCSVMHEALHNRFTQKSLSLSPGK
light: DIQMTQSPSSVSASVGDRVTITCQSSQSVYNNNWLSWLQQKPGKAPKRLIYDASKLESGVPSRFSGSGSGTDFTLTISSVQPEDAATYYCAGGFTGNVYTFGGGTKVEIKRTVAAPSVFIFPPSDEQLKSGTASVVCLLNNFYPREAKVQWKVDNALQSGNSQESVTEQDSKDSTYSLSSTLTLSKADYEKHKVYACEVTHQGLSSPVTKSFNRGEC
notes: Chain A heavy: CALRB421 Fab heavy part, CD3 spFv, Fc; Chain B heavy: CALRB421; one light chain on each
